Results from patent publication US20200392227A1 (LYVGEN BIOPHARMA, published 2020).
Substitutions are numbered along the chain they refer to. Like-named read-outs stand apart in the source and are kept apart here. One block for each binder: values may come before it.

Tests used:
[1] = molecular target: T1, human FcγRI expressed on CHO cells (human, UniProt P12314 16-374); assay: FACS, CHO cells expressing FcγRI
T1 construct: whole, on cells
Experimental: For FACS analysis of the IgG mutants' binding to different FcγRs, FcγR overexpressing CHO cells were harvested using trypsin-EDTA and were suspended in cold staining buffer (3% BSA in PBS). Test IgG mutants, which were diluted in staining buffer, were added into the cells. The mixture was incubated 4° C. for 2 hours, and then washed twice with cold staining buffer and re-suspended in PE-labeled anti-human IgG followed by incubation at 4° C. for 2 hours. The mixture was washed twice with staining buffer and re-suspended in 2% PFA in PBS for FACS.

[2] = molecular target: T2, human FcγRIIC expressed on CHO cells (human, UniProt P31995 43-323); assay: FACS, CHO cells expressing FcγRIIC
T2 construct: whole, on cells
T2 sequence (looked up): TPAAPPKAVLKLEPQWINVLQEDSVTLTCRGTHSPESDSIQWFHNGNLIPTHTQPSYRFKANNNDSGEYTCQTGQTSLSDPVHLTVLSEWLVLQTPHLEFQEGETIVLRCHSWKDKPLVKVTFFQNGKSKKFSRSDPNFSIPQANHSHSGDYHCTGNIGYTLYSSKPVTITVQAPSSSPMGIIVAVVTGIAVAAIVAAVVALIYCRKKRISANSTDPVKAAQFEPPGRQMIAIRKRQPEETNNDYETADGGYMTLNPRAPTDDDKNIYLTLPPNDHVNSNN

[3] = molecular target: T3, human FcRI protein (MednaBio, E1031) (human, UniProt P12314 16-288, limits assumed); assay: BLI
T3 construct: Bought; loaded on anti-penta-HIS biosensors; also called FcγRI
T3 sequence (P12314 16-288 limits assumed): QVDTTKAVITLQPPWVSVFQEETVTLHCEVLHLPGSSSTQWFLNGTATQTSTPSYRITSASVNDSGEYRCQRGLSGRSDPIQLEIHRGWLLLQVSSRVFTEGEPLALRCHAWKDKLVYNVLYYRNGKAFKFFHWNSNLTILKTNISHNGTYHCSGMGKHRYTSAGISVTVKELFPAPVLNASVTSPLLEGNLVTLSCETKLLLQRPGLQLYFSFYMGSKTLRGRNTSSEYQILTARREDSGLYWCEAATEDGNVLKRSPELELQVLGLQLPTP
Procedure, shortened: (§1)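 Binding was measured by biolayer interferometry on an Octet Red96 System. Commercial human Fc receptor proteins were loaded at 20 μg/mL onto anti-penta-HIS biosensors, which were then dipped into an 8-point 1:3 dilution series of test IgG starting at 300 nM in PBS with 0.1% BSA and 0.02% Tween-20, at pH 7.2 for Fcγ receptors and pH 6 for FcRn. Kd, kon and koff were obtained by global fitting, with data fitted to a 1:1 binding model.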

[4] = molecular target: T4, human FcRn protein (MednaBio, E1032) (human, UniProt P55899 24-297; P61769 21-119); assay: BLI
T4 construct: Bought; assays at pH 6
Procedure, shortened: as §1

[5] = molecular target: T5, human FcRIIA protein (MednaBio, E1033) (human, UniProt P12318 34-218, limits assumed); assay: BLI
T5 construct: Bought; also called FcγRIIA
T5 sequence (looked up): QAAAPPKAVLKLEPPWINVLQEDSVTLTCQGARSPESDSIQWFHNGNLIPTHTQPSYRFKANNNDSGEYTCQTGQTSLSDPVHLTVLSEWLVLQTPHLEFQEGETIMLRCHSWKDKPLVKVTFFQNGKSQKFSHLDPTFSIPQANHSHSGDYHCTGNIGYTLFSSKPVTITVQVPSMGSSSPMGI
Procedure, shortened: as §1

[6] = molecular target: T6, human FcRIIIA-V158 protein (MednaBio, E1035) (human, UniProt P08637 17-208); assay: BLI
T6 construct: Bought; also called FcγRIIIA(V); FcgRIIIA(V)
T6 sequence (P08637 17-208 F176V): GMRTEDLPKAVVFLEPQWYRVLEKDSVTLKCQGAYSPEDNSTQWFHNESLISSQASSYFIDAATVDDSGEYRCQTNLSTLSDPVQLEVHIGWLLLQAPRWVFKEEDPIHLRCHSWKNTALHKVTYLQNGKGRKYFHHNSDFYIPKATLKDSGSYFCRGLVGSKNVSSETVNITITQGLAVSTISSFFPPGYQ
Procedure, shortened: as §1

[7] = molecular target: T7, human FcRIIB/C protein (MednaBio, E1034) (human, UniProt P31994 43-217, limits assumed); assay: BLI
T7 construct: Bought as FcRIIB/C; also called FcγRIIB; CD32B
T7 sequence (looked up): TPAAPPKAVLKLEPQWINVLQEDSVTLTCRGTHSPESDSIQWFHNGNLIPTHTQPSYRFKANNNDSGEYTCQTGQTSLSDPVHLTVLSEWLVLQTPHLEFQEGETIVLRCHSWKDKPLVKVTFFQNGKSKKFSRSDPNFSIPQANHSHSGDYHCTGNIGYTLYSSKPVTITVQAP
Procedure, shortened: as §1

[8] = molecular target: T8, human FcRIIIA-F158 protein (MednaBio, E1036) (human, UniProt P08637 17-208); assay: BLI
T8 construct: Bought; also called FcγRIIIA(F)
T8 sequence (P08637 17-208 limits assumed): as the sequence (P08637 17-208 F176V) above, with V160F counted along it
Procedure, shortened: as §1

[9] = molecular target: T9, human FcRIIIB protein (MednaBio, E1037) (human, UniProt O75015 17-200); assay: BLI
T9 construct: Bought; also called FcγRIIIB; FcgRIIIB
T9 sequence (O75015 17-200 limits assumed): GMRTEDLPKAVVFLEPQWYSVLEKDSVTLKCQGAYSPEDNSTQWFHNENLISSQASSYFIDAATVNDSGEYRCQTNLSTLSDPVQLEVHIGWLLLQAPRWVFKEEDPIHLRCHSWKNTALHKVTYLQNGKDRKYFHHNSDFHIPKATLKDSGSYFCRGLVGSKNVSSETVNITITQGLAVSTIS
Procedure, shortened: as §1

[10] = molecular target: T3, human FcRI protein (MednaBio, E1031); assay: BLI; remark: listed apart in the source
Experimental: (§2) These IgG mutants were tested for binding to a panel of human Fc receptors (FcRs), including FcRn, using the Octet Red96 System (ForteBio, Model #Red96). Human FcR proteins were purchased commercially (FcRn, MednaBio, E1032; FcRI, MednaBio, E1031; FcRIIA, MednaBio, E1033; FcRIIB/C, MednaBio, E1034; FcRIIIA-F158, MednaBio, E1036; FcRIIIA-V158, MednaBio, E1035; FcRIIIB, MednaBio, E1037). All Fey receptor assays were performed at pH 7.2; all FcRn assays were performed at pH 6. The Fey receptors were loaded onto anti-penta-HIS1K (ForteBio, Cat #18-5122) biosensors at a concentration of 20 μg/mL. The loaded biosensors was then be dipped into an 8-point 1:3 dilution series of the test IgG molecules (including controls and the mutants described herein) in PBS with 0.1% BSA, 0.02% Tween-20 (pH 7.2) at a starting concentration of 300 nM. Kinetic analysis was performed using a 1:1 binding model and global fitting.

[11] = molecular target: T4, human FcRn protein (MednaBio, E1032); assay: BLI; remark: listed apart in the source
Experimental: as §2

[12] = molecular target: T5, human FcRIIA protein (MednaBio, E1033); assay: BLI; remark: listed apart in the source
Experimental: as §2

[13] = molecular target: T6, human FcRIIIA-V158 protein (MednaBio, …); assay: BLI; remark: listed apart in the source
Experimental: as §2

[14] = molecular target: T7, human FcRIIB/C protein (MednaBio, E1034); assay: BLI; remark: listed apart in the source
Experimental: as §2

[15] = molecular target: T8, human FcRIIIA-F158 protein (MednaBio, …); assay: BLI; remark: listed apart in the source
Experimental: as §2

[16] = molecular target: T9, human FcRIIIB protein (MednaBio, E1037); assay: BLI; remark: listed apart in the source
Experimental: as §2

T1 sequence (P12314 16-374): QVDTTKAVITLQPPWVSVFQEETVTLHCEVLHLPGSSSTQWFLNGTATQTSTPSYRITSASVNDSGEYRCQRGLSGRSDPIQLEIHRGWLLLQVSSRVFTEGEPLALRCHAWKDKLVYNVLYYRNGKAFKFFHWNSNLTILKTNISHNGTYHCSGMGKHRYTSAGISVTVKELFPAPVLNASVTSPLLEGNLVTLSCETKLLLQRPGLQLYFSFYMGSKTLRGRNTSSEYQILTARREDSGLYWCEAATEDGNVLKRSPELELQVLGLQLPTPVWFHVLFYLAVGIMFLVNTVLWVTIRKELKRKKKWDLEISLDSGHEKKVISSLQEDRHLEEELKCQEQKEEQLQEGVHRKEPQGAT

B3: anti-CD137 IgG4 with Fc variant G4m1 (antibody)
heavy: EVQLVQSGAEVKKPGESLRISCKGSGYSFSTYWISWVRQMPGKGLEWMGKIYPGDSYTNYSPSFQGQVTISADKSISTAYLQWSSLKASDTAMYYCARGYGIFDYWGQGTLVTVSSASTKGPSVFPLAPCSRSTSESTAALGCLVKDYFPEPVTVSWNSGALTSGVHTFPAVLQSSGLYSLSSVVTVPSSSLGTKTYTCNVDHKPSNTKVDKRVESKYGPPCPPCPAPEFLSVFLFPPKPKDTLMISRTPEVTCVVVDVSQEDPEVQFNWYVDGVEVHNAKTKPREEQFNSTYRVVSVLTVLHQDWLNGKEYKCKVSNKGLPSSIEKTISKAKGQPREPQVYTLPPSQEEMTKNQVSLTCLVKGFYPSDIAVEWESNGQPENNYKTTPPVLDSDGSFFLYSRLTVDKSRWQEGNVFSCSVMHEALHNHYTQKSLSLSLGK
light: SYELTQPPSVSVSPGQTASITCSGDNIGDQYAHWYQQKPGQSPVLVIYQDKNRPSGIPERFSGSNSGNTATLTISGTQAMDEADYYCATYTGFGSLAVFGGGTKLTVLGQPKAAPSVTLFPPSSEELQANKATLVCLISDFYPGAVTVAWKADSSPVKAGVETTTPSKQSNNKYAASSYLSLTPEQWKSHRSYSCQVTHEGSTVEKTVAPTECS
notes: copies: 2 + 2
Kd [10]: 130 nM | koff [10]: 0.097 s⁻¹ | kon [10]: 740000 M⁻¹ s⁻¹ | Kd [11]: 19 nM | koff [11]: 0.013 s⁻¹ | kon [11]: 690000 M⁻¹ s⁻¹ | Kd [12]: 450 nM | koff [12]: 0.11 s⁻¹ | kon [12]: 240000 M⁻¹ s⁻¹ | binding result [13]: no binding (tested: 300 nM) | Kd [14]: 250 nM | koff [14]: 0.11 s⁻¹ | kon [14]: 420000 M⁻¹ s⁻¹ | binding result [15]: no binding (tested: 300 nM) | binding result [16]: no binding (tested: 300 nM)

B5: anti-CD137 IgG2 with Fc variant G2m9 (antibody)
heavy: EVQLVQSGAEVKKPGESLRISCKGSGYSFSTYWISWVRQMPGKGLEWMGKIYPGDSYTNYSPSFQGQVTISADKSISTAYLQWSSLKASDTAMYYCARGYGIFDYWGQGTLVTVSSASTKGPSVFPLAPCSRSTSESTAALGCLVKDYFPEPVTVSWNSGALTSGVHTFPAVLQSSGLYSLSSVVTVPSSNFGTQTYTCNVDHKPSNTKVDKTVERKCCVECPPCPAPPVAGPSVFLFPPKPKDTLMISRTPEVTCVVVDVEHEDPEVQFNWYVDGVEVHNAKTKPREEQFNSTFRVVSVLTVVHQDWLNGKEYKCKVSNKGFPAPIEKTISKTKGQPREPQVYTLPPSREEMTKNQVSLTCLVKGFYPSDIAVEWESNGQPENNYKTTPPMLDSDGSFFLYSKLTVDKSRWQQGNVFSCSVMHEALHNHYTQKSLSLSPGK
light: B3 light
notes: copies: 2 + 2
binding result [2]: binds | binding result [3]: no binding (tested: 300 nM) | Kd [4]: 22 nM | koff [4]: 0.0058 s⁻¹ | kon [4]: 270000 M⁻¹ s⁻¹ | Kd [5]: 280 nM | koff [5]: 0.03 s⁻¹ | kon [5]: 110000 M⁻¹ s⁻¹ | binding result [6]: no binding (tested: 300 nM) | Kd [7]: 52 nM | koff [7]: 0.005 s⁻¹ | kon [7]: 97000 M⁻¹ s⁻¹ | binding result [8]: no binding (tested: 300 nM) | binding result [9]: no binding (tested: 300 nM)

Next, values leading:

binding result [1]: no binding (tested: 10 ug/ml) | binding result [2]: binds | binding result [3]: no binding (tested: 300 nM) | Kd [4]: 5.7 nM | koff [4]: 0.0052 s⁻¹ | kon [4]: 910000 M⁻¹ s⁻¹ | Kd [5]: 120 nM | koff [5]: 0.028 s⁻¹ | kon [5]: 230000 M⁻¹ s⁻¹ | binding result [6]: no binding (tested: 300 nM) | Kd [7]: 170 nM | koff [7]: 0.052 s⁻¹ | kon [7]: 310000 M⁻¹ s⁻¹ | binding result [8]: no binding (tested: 300 nM) | binding result [9]: no binding (tested: 300 nM)
B1: anti-CD137 IgG2 with Fc variant G2m7 (antibody)
heavy: B5 heavy with F323L
light: B3 light
notes: copies: 2 + 2

binding result [1]: no binding (tested: 10 ug/ml) | binding result [3]: no binding (tested: 300 nM) | Kd [4]: 6.3 nM | koff [4]: 0.0053 s⁻¹ | kon [4]: 850000 M⁻¹ s⁻¹ | Kd [5]: 93 nM | koff [5]: 0.092 s⁻¹ | kon [5]: 990000 M⁻¹ s⁻¹ | binding result [6]: no binding (tested: 300 nM) | Kd [7]: 500 nM | koff [7]: 0.26 s⁻¹ | kon [7]: 510000 M⁻¹ s⁻¹ | binding result [8]: no binding (tested: 300 nM) | binding result [9]: no binding (tested: 300 nM)
B2: anti-CD137 IgG2 with Fc variant G2m8 (antibody)
heavy: B5 heavy with E262S
light: B3 light
notes: copies: 2 + 2

binding result [10]: no binding (tested: 300 nM) | Kd [11]: 11 nM | koff [11]: 0.0055 s⁻¹ | kon [11]: 510000 M⁻¹ s⁻¹ | Kd [12]: 83 nM | koff [12]: 0.037 s⁻¹ | kon [12]: 450000 M⁻¹ s⁻¹ | binding result [13]: no binding (tested: 300 nM) | binding result [14]: no binding (tested: 300 nM) | binding result [15]: no binding (tested: 300 nM) | binding result [16]: no binding (tested: 300 nM) | binding result [2]: no binding (tested: 10 ug/ml)
B4: anti-CD137 IgG4 with Fc variant G4m10 (antibody)
heavy: B3 heavy with F230V, L231S, L321F
light: B3 light
notes: copies: 2 + 2
